Measured values: the supplement of paper PMC10065799, “High-throughput profiling of sequence recognition by tyrosine kinases and SH2 domains using bacterial peptide display” (eLife, 2023)

Columns and labels:
EPHB1 = EPHB1 (UniProt P54762); assay: phosphorylation enrichment, bacterial display (enrichment ratio); higher = better substrate or ligand; peptides without Tyr show the background
Hck = Hck (UniProt P08631); assay: as above
Fes = Fes (UniProt P07332); assay: as above
Fyn = Fyn (UniProt P06241); assay: as above
Chain of Fyn (P06241 whole entry, looked up): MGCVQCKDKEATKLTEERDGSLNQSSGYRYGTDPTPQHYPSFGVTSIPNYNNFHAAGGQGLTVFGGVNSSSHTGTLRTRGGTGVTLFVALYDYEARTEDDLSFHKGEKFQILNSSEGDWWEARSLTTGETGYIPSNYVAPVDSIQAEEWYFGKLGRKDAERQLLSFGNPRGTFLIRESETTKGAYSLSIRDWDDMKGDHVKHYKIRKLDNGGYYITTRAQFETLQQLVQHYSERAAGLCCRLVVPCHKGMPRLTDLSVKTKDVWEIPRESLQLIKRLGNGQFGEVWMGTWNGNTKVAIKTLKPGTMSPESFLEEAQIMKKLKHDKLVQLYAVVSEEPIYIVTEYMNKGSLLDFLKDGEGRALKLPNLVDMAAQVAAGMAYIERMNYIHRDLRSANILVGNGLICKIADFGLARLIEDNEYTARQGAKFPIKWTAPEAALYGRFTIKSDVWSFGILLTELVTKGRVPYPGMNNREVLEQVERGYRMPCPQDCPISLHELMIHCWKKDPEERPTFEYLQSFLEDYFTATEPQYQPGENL

FGFR3 = FGFR3 (UniProt P22607); assay: as above
Chain of FGFR3 (P22607 whole entry, looked up): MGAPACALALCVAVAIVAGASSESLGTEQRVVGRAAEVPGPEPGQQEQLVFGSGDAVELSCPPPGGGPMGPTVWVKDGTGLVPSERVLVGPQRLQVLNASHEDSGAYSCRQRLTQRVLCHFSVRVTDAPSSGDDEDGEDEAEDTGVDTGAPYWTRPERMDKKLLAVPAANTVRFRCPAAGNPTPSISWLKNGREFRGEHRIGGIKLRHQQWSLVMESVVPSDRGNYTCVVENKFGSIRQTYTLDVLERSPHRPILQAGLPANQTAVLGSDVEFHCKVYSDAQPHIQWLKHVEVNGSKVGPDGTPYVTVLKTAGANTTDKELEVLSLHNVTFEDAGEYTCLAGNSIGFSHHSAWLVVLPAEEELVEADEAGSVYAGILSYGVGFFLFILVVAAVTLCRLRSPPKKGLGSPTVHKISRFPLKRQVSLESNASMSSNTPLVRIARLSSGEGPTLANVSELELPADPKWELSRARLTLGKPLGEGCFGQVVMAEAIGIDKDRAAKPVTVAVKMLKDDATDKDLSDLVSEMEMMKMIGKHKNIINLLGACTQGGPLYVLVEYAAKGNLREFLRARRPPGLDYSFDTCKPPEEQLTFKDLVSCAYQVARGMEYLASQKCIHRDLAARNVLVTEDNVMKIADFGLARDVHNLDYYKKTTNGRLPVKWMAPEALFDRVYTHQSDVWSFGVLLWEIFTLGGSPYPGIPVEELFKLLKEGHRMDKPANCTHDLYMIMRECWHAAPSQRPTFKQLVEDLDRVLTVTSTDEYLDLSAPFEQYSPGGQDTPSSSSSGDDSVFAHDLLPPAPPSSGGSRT

MERTK = MERTK (UniProt Q12866); assay: as above
c-Src = assay: as above
Jak2 = Jak2 (UniProt O60674); assay: as above
Chain of Jak2 (O60674 whole entry, looked up): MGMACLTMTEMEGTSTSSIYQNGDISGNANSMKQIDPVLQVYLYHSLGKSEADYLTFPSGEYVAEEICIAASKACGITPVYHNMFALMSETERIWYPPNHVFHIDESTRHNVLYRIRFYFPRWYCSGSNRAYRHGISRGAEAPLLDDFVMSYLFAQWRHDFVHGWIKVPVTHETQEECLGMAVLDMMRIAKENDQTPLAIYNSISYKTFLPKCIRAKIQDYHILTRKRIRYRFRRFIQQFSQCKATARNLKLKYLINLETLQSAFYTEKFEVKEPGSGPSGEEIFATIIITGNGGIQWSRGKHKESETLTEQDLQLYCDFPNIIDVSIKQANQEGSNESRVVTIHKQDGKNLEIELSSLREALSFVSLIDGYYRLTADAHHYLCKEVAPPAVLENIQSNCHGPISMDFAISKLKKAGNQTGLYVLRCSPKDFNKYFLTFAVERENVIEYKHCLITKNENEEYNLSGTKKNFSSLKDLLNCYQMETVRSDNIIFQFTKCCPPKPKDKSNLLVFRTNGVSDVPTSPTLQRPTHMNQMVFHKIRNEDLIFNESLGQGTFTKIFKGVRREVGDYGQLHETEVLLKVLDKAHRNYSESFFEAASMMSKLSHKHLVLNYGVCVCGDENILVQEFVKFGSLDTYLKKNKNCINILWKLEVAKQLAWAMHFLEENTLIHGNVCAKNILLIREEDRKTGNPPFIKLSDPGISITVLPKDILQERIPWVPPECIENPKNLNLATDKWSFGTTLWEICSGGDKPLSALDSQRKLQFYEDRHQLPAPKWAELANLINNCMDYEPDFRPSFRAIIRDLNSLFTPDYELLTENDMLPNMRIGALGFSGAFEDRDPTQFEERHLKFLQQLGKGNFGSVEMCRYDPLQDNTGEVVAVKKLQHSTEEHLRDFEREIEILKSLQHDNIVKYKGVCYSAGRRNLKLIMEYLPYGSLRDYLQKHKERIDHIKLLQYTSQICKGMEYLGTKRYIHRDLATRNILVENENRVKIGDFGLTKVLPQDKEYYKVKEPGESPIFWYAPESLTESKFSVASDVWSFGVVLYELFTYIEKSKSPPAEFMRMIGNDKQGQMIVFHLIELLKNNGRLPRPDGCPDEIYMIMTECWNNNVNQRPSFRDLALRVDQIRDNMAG

c-Abl (mouse) = assay: as above
FGFR1 = FGFR1 (UniProt P11362); assay: as above
Chain of FGFR1 (P11362 whole entry, looked up): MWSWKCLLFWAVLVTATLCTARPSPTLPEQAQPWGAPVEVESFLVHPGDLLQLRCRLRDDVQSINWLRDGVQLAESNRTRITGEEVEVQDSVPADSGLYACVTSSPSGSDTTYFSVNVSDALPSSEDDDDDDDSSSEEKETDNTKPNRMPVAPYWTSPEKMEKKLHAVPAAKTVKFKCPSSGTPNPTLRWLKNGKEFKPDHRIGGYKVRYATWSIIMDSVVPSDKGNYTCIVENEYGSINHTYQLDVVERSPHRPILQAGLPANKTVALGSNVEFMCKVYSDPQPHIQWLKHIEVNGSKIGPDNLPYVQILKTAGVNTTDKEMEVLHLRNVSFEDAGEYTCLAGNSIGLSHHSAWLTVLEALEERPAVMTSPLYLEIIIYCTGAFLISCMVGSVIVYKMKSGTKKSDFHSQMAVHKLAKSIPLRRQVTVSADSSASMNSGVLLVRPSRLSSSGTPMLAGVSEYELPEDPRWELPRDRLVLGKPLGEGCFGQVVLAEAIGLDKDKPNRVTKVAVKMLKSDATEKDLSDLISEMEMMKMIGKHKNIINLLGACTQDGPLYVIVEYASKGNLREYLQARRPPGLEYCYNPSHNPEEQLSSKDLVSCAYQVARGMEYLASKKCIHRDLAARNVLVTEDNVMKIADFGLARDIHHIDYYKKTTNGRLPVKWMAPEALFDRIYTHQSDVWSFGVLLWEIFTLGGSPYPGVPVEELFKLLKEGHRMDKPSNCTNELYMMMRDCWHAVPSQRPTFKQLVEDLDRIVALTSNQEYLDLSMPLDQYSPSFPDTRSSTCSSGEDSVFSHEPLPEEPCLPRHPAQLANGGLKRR

EPHB2 = EPHB2 (UniProt P29323); assay: as above
AncSZ = assay: as above
Fer (mouse) = assay: as above
SHP2-C SH2 = assay: SH2 binding enrichment of the phosphorylated peptide, bacterial display (enrichment ratio); higher = better substrate or ligand; peptides without Tyr show the background
Grb2 SH2 = Grb2 SH2 (UniProt P62993); assay: as above
Chain of Grb2 SH2 (P62993 whole entry, looked up): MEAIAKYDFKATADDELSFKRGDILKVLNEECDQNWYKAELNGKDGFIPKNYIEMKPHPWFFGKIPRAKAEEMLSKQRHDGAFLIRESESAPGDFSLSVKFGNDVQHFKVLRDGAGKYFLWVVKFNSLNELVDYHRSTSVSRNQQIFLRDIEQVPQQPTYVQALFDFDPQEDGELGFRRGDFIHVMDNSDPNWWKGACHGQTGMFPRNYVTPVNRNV

c-Src SH2 = assay: as above
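For SH2 binding enrichment of the phosphorylated peptide, bacterial display in this document: peptide library displayed on the E. coli surface as eCPX fusions, selected cells deep-sequenced, score is each peptide's frequency after selection divided by its frequency in the input.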
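For phosphorylation enrichment, bacterial display in this document: 11-residue human phosphosite peptides and single-mutation variants displayed on the E. coli surface, counted by deep sequencing, each peptide's frequency after selection divided by its frequency in the unselected input library; frequency after pTyr selection over input frequency; kinase dosed for 20-30% of maximal phosphorylation in three min.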

Chain of Hck (P08631 whole entry, looked up): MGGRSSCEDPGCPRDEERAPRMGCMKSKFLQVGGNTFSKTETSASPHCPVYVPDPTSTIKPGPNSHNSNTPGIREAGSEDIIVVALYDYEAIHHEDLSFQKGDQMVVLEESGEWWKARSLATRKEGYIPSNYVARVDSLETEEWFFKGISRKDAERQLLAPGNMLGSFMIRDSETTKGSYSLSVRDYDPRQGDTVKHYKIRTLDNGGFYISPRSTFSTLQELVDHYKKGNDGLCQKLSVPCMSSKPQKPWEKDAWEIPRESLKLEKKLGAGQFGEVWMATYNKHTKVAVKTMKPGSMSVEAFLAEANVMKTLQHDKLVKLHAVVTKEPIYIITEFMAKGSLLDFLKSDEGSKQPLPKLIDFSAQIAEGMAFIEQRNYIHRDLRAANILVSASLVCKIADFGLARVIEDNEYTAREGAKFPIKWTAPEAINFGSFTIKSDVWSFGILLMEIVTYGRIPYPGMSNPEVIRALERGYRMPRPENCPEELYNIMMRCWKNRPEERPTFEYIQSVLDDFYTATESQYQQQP
Chain of EPHB1 (P54762 whole entry, looked up): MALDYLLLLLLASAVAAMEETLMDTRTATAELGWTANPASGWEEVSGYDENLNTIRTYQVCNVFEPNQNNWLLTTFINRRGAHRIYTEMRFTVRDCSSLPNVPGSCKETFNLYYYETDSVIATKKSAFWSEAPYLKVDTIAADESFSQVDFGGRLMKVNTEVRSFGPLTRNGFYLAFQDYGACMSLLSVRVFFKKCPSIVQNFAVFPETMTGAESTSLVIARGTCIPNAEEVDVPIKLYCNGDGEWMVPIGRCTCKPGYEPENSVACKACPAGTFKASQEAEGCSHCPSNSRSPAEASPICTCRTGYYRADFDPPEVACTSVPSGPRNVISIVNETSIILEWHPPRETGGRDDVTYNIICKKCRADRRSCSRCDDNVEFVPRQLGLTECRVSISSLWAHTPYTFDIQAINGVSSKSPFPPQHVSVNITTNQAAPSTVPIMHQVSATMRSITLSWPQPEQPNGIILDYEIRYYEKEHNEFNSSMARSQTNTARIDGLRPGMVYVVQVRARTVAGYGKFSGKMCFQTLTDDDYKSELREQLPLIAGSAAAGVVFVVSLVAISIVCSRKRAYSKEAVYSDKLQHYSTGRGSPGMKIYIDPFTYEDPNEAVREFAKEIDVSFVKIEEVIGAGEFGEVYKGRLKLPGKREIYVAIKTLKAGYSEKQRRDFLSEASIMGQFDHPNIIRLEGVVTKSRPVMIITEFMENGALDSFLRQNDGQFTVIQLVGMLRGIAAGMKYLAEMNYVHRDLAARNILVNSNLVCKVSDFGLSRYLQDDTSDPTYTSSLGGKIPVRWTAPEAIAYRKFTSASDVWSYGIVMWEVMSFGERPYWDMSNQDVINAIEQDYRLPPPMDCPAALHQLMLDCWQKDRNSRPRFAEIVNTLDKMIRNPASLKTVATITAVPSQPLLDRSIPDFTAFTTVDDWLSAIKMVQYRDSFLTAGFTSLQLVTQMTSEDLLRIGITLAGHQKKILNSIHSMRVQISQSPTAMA

| Sequence | phosphorylation enrichment (EPHB1) | phosphorylation enrichment (Hck) | phosphorylation enrichment (Fes) | phosphorylation enrichment (Fyn) | phosphorylation enrichment (FGFR3) | phosphorylation enrichment (MERTK) | phosphorylation enrichment (c-Src) | phosphorylation enrichment (Jak2) | phosphorylation enrichment (c-Abl (mouse)) | phosphorylation enrichment (FGFR1) | phosphorylation enrichment (EPHB2) | phosphorylation enrichment (AncSZ) | phosphorylation enrichment (Fer (mouse)) | SH2 binding enrichment (SHP2-C SH2) | SH2 binding enrichment (Grb2 SH2) | SH2 binding enrichment (c-Src SH2) |
| --- | --- | --- | --- | --- | --- | --- | --- | --- | --- | --- | --- | --- | --- | --- | --- | --- |
| DLQDEYDFKRK [STAT1_Y170_C174R] | 0.495 | 0.472 | 1.16 | 0.465 | 0.643 | 0.355 | 0.476 | 0.916 | 0.588 | 0.472 | 0.54 | 0.992 | 0.463 | 0.682 | 0.902 | 0.505 |
| EVDETYVPKEF [ALB_Y521] | 0.613 | 0.668 | 1.58 | 0.517 | 0.791 | 0.491 | 0.595 | 1.19 | 0.889 | 0.589 | 0.64 | 1.22 | 0.605 | 0.651 | 0.881 | 0.498 |
| VDSNPYSHLMA [UBA5_Y53_R55H] | 0.48 | 0.891 | 0.631 | 0.639 | 0.489 | 0.518 | 0.862 | 0.577 | 0.504 | 0.418 | 0.481 | 0.669 | 1.25 | 1.15 | 0.813 | 1.59 |
| FTGDIYSNSNL [LZTR1_Y141_YF] | 0.903 | 7.46 | 0.849 | 6.36 | 0.502 | 1.1 | 5.54 | 0.756 | 0.831 | 0.667 | 0.738 | 0.957 | 2.87 | 0.586 | 0.721 | 0.415 |
| SDGHEYIFVDR [PDGFRB_Y579_P584R_YF] | 0.427 | 0.398 | 0.759 | 0.436 | 0.833 | 0.35 | 0.517 | 0.71 | 0.489 | 1.04 | 0.448 | 0.962 | 0.329 | 0.676 | 0.845 | 0.636 |
| SVGGCYEQLFV [MC4R_Y41_D37V] | 1.02 | 1.46 | 1.42 | 0.982 | 0.972 | 0.826 | 1.24 | 1.14 | 1.22 | 0.791 | 0.661 | 1.51 | 7.02 | 0.633 | 0.862 | 0.76 |
| IRTDAYVWAMT [RPE65_Y89_R91W] | 0.573 | 0.517 | 1.11 | 0.446 | 0.75 | 0.413 | 0.372 | 0.904 | 0.724 | 0.613 | 0.6 | 1.07 | 0.554 | 0.698 | 0.835 | 0.62 |
| EFFDGYWGFSV [ITGA2B_Y265_YF] | 0.633 | 3.31 | 1.15 | 3.98 | 4.7 | 1.14 | 5.54 | 8.01 | 1.53 | 6.3 | 0.58 | 1.43 | 0.54 | 0.634 | 0.705 | 0.657 |
| SLLLSYFLIKW [NUP160_Y773_P768S_YF] | 0.691 | 0.654 | 1.46 | 0.589 | 1.08 | 0.514 | 0.512 | 1.51 | 1.05 | 0.732 | 0.788 | 1.56 | 0.719 | 0.978 | 1.3 | 1.15 |
| FLQTDYTSQVS [FRMPD1_Y846] | 0.37 | 0.417 | 0.805 | 0.404 | 0.538 | 0.386 | 0.428 | 0.732 | 0.565 | 0.442 | 0.44 | 1.03 | 0.451 | 0.873 | 0.791 | 0.579 |
| SSQILYKLEQS [THADA_Y701_V699I] | 0.56 | 0.49 | 0.781 | 0.388 | 0.582 | 0.466 | 0.669 | 0.7 | 0.551 | 0.4 | 0.451 | 0.727 | 0.423 | 0.533 | 1 | 0.537 |
| KSPGEYVNIEF [IRS1_Y896] | 0.653 | 0.575 | 0.812 | 0.49 | 1.06 | 0.546 | 0.47 | 0.623 | 0.706 | 1.35 | 0.736 | 0.906 | 0.505 | 1.26 | 3.04 | 4.93 |
| MLEVPYVDHNS [F10_Y384_R387H] | 0.594 | 0.618 | 1.42 | 0.416 | 0.786 | 0.424 | 0.506 | 1.24 | 0.817 | 0.516 | 0.51 | 1.2 | 0.583 | 0.547 | 0.707 | 0.407 |
| RHTRSYDFMEG [FGF7_Y56_YF] | 0.293 | 0.857 | 1.19 | 0.823 | 0.726 | 1.13 | 0.82 | 0.852 | 1.3 | 0.591 | 0.792 | 0.848 | 0.794 | 1.2 | 0.944 | 1.92 |
| TGYRPYVCPFD [YY1_Y383_D380Y] | 0.753 | 0.525 | 1.33 | 0.583 | 0.951 | 0.551 | 0.412 | 1.04 | 0.808 | 0.621 | 0.706 | 1.16 | 0.574 | 0.552 | 0.797 | 0.611 |
| TYAVSYLPDMS [FLNC_Y1602_T1599A] | 0.559 | 0.732 | 0.763 | 0.589 | 0.576 | 1.6 | 0.811 | 0.924 | 0.963 | 0.428 | 0.785 | 0.867 | 0.575 | 0.95 | 0.809 | 0.674 |
| AKYLGYPPPEI [KDR_Y357] | 0.374 | 0.512 | 0.849 | 0.321 | 0.556 | 0.378 | 0.385 | 0.594 | 0.538 | 0.395 | 0.535 | 0.543 | 0.398 | 0.749 | 0.831 | 0.43 |
